This note sets out measurements from patent US20250333481A1.

In the experiment the target is chimeric receptor consisting of extracellular domain of BDNF receptor TrkB and transmembrane domain and cytoplasmic domain of thrombopoietin receptor c-Mpl. Put plainly: cell-based or functional assay.

In the case of “recombinant wild-type hBDNF (Abcam) (from UniProt P23560 129-247) (ligand)”, the EC50, cell proliferation of BaF/TrkB·c-Mpl chimera cells (MTS, absorbance at 490 nM) was found to be 1.19 nM.
